# Measured values as given in patent US20240409645A1 (DUALYX, published 2024).
# T1: human common cytokine receptor γ-chain (γc; IL-2Rγ; CD132), recombinant protein (human, UniProt P31785 23-262)
# T1 construct: also called human IL-2R subunit CD132
# T1 sequence: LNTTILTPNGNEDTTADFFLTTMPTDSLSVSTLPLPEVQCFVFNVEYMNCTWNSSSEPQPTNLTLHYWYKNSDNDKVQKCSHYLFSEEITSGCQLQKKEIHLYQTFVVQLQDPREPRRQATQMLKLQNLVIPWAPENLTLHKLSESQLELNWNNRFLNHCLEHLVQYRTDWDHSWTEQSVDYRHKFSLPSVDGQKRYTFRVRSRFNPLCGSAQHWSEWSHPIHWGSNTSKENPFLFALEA
# T2: cynomolgus monkey IL-2Rγ/CD132 subunit (cynomolgus monkey, UniProt A0A2K5VGJ6 23-262)
# T2 construct: also called Cyno IL-2R subunit
# T2 sequence: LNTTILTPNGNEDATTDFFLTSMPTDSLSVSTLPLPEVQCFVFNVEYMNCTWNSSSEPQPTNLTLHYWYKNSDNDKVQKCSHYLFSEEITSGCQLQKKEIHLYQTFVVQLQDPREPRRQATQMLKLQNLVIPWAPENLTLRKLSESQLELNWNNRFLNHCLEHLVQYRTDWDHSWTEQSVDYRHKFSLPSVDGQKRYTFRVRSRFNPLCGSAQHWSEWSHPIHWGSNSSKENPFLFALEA
# T3: mouse IL-2Rγ, recombinant protein (mouse, UniProt P34902 23-263, limits assumed)
# T3 sequence (looked up): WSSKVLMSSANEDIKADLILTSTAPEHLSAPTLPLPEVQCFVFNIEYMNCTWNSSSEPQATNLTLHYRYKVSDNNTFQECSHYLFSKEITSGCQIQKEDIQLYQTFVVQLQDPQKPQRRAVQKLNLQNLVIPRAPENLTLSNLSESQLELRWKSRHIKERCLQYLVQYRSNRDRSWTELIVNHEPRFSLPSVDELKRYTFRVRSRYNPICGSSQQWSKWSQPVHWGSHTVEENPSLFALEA
# Tests used:
# [1] = biological target: T1, human common cytokine receptor γ-chain …; assay: P.E. binding ELISA
# How it was run: (§1)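 Plates were coated overnight at 4° C with human or mouse IL-2R chain protein, and free sites blocked for 1 hour in 4% Marvel in PBS. Periplasmic extracts diluted 1:5 in 1% Marvel/PBS then bound for 1 hour, with specificity assessed from 450 nm absorbance relative to negative controls.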
# [2] = biological target: T1, human common cytokine receptor γ-chain …; assay: P.E. off-rate SPR
# How it was run: (§2)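 First, the IL-2R protein is immobilised via amine coupling in acetate buffer to roughly 2500 RU on a CM5 sensor chip. Next, the VHH extract is loaded at 30 uL/min. Finally, dissociation is recorded for 120s.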
# [3] = biological target: T2, cynomolgus monkey IL-2Rγ/CD132 subunit; assay: ELISA, bivalent; EC50 cyno vs human subunit
# Experimental: (§3) Monospecific monovalent and bivalent IL-2Rα-, IL-2Rβ- and IL-2Rγ-specific antibodies that were selected on human IL-2R subunits, were evaluated for their cross-reactivity in an ELISA. Human and cynomolgus monkey receptor subunits (Acrobiosystems, KactusBiosystems) were coated at 1 μg/mL in PBS (pH 7.4) in a Maxisorp plate (Nunc) and incubated overnight at 4° C. The plates were further washed with PBS-Tween pH 7.4 and incubated with 1% cascin/PBS-Tween blocking solution for 1 hour shaking at 400 rpm. Subsequently, the plate was washed three times with PBS-Tween pH 7.4, after which the test antibodies diluted in 0.1% casein/PBS-Tween were added to the plate and incubated for 1 hour. The plate was again washed three times, after which goat anti-human IgG Fc (HRP) detection antibody (abcam) was added to the plate and incubated for 30 min. The colouring reaction was performed with TMB (Sigma-Aldrich) and stopped with 0.5N H₂SO₄.
# (§4) Absorbance was measured at 450 nm with the reference wavelength of 620 nm using spectrophotometer. Final analysis and graphic output were performed with GraphPad Prism version 8 (GraphPad Software). The dose-response binding curves were fit to a nonlinear regression model (log (agonist) vs. response with a variable slope (four parameters)).
# [4] = biological target: T1, human common cytokine receptor γ-chain …; assay: ELISA, bivalent VHH-hFc
# Experimental: as §3, §4
# [5] = biological target: T2, cynomolgus monkey IL-2Rγ/CD132 subunit; assay: ELISA, bivalent VHH-hFc
# Experimental: as §3, §4
# [6] = biological target: T3, mouse IL-2Rγ, recombinant protein; assay: P.E. binding ELISA
# How it was run: as §1
# [7] = biological target: T3, mouse IL-2Rγ, recombinant protein; assay: P.E. off-rate SPR
# How it was run: as §2
OD450 nm [1],koff [2],Fold change [3],EC50 [4],EC50 [5],OD450 nm [6],koff [7],Binder
0.157 OD450 nm,0.00625 s⁻¹,–,–,–,–,–,"29-MP04H02 VHH (periplasmic extract) (VHH, soluble VHH in periplasmic extract) VHH: QVQLVESGGGLVQAGGSLRLACVASGLTFDNYYMGWFRQAPGKEREFVAGIIWNGDHTAYADSIKGRFTISRDNAKNTAYLRMNSLKPEDTAVYYCAATFWIERATTPDIGQYAYWGQGTQVTVSS"
–,–,1.4 fold,0.179 nM,0.26 nM,–,–,"29-MP04H02 VHH-hFc, monospecific bivalent (Fc fusion, IgG1 Fc LALA-PG; not shown: human IgG1 CH2 and CH3 domains (Fc)) QVQLVESGGGLVQAGGSLRLACVASGLTFDNYYMGWFRQAPGKEREFVAGIIWNGDHTAYADSIKGRFTISRDNAKNTAYLRMNSLKPEDTAVYYCAATFWIERATTPDIGQYAYWGQGTQVTVSS"
–,–,–,–,–,0.495 OD450 nm,0.283 s⁻¹,"31-MP04E03 VHH (periplasmic extract) (VHH, soluble VHH in periplasmic extract) VHH: QVQLVESGGGLVQAGGSLRLSCTGYGGAFTGYALGWFRQAPGKEREFVARINWSGSFTYYASSVKGRFTISRDNAKNTMYLQMNNLKPEDTAVYYCAADNPSTLATDYDNWGQGTQVTVSS"
0.896 OD450 nm,0.00331 s⁻¹,–,–,–,–,–,"36-MP07F02 VHH (periplasmic extract) (VHH, soluble VHH in periplasmic extract) VHH: QVQLVESGGGLVQAGGSLRLSCAASGRTLSRYAMGWFRQAPGSEREFVAASSWGGDTFYADSVEGRFTFSRDNAKNAVYLQMNSLQPEDTAAYYCAAAPTSFPTTAYSSSNSYAYWGQGTQVTVSS"
–,–,1 fold,0.117 nM,0.121 nM,–,–,"36-MP07F02 VHH-hFc, monospecific bivalent (Fc fusion, IgG1 Fc LALA-PG; not shown: human IgG1 CH2 and CH3 domains (Fc)) QVQLVESGGGLVQAGGSLRLSCAASGRTLSRYAMGWFRQAPGSEREFVAASSWGGDTFYADSVEGRFTFSRDNAKNAVYLQMNSLQPEDTAAYYCAAAPTSFPTTAYSSSNSYAYWGQGTQVTVSS"
–,–,1.2 fold,0.113 nM,0.133 nM,–,–,"38-MP07A11 VHH-hFc, monospecific bivalent (Fc fusion, IgG1 Fc LALA-PG; not shown: human IgG1 CH2 and CH3 domains (Fc)) QVQLVESGGGLVQAGGSLRLSCAASGRSLSRDAMGWFRQAPGKEREFVAVMSWGGDTFYTDSVEGRFTFSRDNAKNAVYLEMNDLQPEDTAVYYCAAAPTSFATTAYSSSNSYSYWGRGTQVTVSS"
–,–,1 fold,0.117 nM,0.112 nM,–,–,"34-MP04A12 VHH-hFc, monospecific bivalent (Fc fusion, IgG1 Fc LALA-PG; not shown: human IgG1 CH2 and CH3 domains (Fc)) QVQLVESGGGLVQAGSSLRLSCAASGRTLSRLAMGWFRQAPGKEREFVAVNSWGGDTFYADSVEGRFTYSRDNAKSAVYLQMNSLQPEDTAVYYCAAAPTSFATTAYSSSNSYAYWGQGAQVTVSS"
–,–,1.1 fold,0.107 nM,0.113 nM,–,–,"28-MP04D02 VHH-hFc, monospecific bivalent (Fc fusion, IgG1 Fc LALA-PG; also called clone 28; not shown: human IgG1 CH2 and CH3 domains (Fc)) QVQLVESGGGLVQAGGSLRLSCAASGRTLSRYAMGWFRQAPGKEREFVTANSWGGDTYYADSVQGRFTFSRDNAKNTVYLQMNSLQPEDTAVYYCAAAPTSFATTAYSGSNSYAYWGQGTQVTVSS"
